Measured values published in patent US20040259165A1 (published 2004).

Molecular target: T1, DsRed fused to the Gal4 DNA binding domain (pGBT9) (Discosoma species)
T1 construct: range 1-147; also called DsRed-prey
Experiment: yeast two hybrid in HF7C (HIS3 and LacZ reporters)
Description: Yeast two hybrid assays were also performed. […] Alternatively, the yeast were grown on filters placed on plates lacking tryptophan and leucine to select for the bait and prey plasmids. After overnight growth, the filters were removed from the plates, frozen in liquid nitrogen, thawed, and incubated in X-gal overnight at 30° C. and two days at 4° C. to test for β-galactosidase activity (assayed by blue color development).

B1: DsRed fused to the Gal4 activation domain (pGAD GH) (other)
chain: ANFNQSGNIADSSLSFTFTNSSNGPNLITTQTNSQALSQPIASSNVHDNFMNNEITASKIDDGNNSKPLSPGWTDQTAYNAFGITTGMFNTTTMDDVYNYLFDDEDTPPNPKKEMRSSKNVIKEFMRFKVRMEGTVNGHEFEIEGEGEGRPYEGHNTVKLKVTKGGPLPFAWDILSPQFQYGSKVYVKHPADIPDYKKLSFPEGFKWERVMNFEDGGVVTVTQDSSLQDGCFIYKVKFIGVNFPSDGPVMQKKTMGWEASTERLYPRDGVLKGEIHKALKLKDGGHYLVEFKSIYMAKKPVQLPGYYYVDSKLDITSHNEDYTIVEQYERTEGRHHLFL
notes: range 768-881; also called DsRed-bait
B1: binds.
